According to paper doi:10.1101/2025.04.15.648992:
Blank lines part the entries; values can stand above or below the substance they belong to.

Experiments:
Assay in all cases: SEC
[1] = biological target: CdaA_(88-273) D172A (Leptospira interrogans str. Fiocruz L1-130)
[2] = biological target: CdaA_(88-273) S222A (Leptospira interrogans str. Fiocruz L1-130)
[3] = biological target: CdaA_(88-273) R203A (Leptospira interrogans str. Fiocruz L1-130)

stoichiometry N [1]: 2
Substance: CdaA_(88-273) D172A (domain or fragment)

stoichiometry N [2]: 2
Substance: CdaA_(88-273) S222A (domain or fragment)

stoichiometry N [3]: 2
Substance: CdaA_(88-273) R203A (domain or fragment)
